# Laboratory results: IntAct's records for PubMed 31695625
# B1: Solute carrier family 2, facilitated glucose transporter member 9 (Homo sapiens), Q9NRM0-1 (parent)
# chain: MARKQNRNSKELGLVPLTDDTSHAGPPGPGRALLECDHLRSGVPGGRRRKDWSCSLLVASLAGAFGSSFLYGYNLSVVNAPTPYIKAFYNESWERRHGRPIDPDTLTLLWSVTVSIFAIGGLVGTLIVKMIGKVLGRKHTLLANNGFAISAALLMACSLQAGAFEMLIVGRFIMGIDGGVALSVLPMYLSEISPKEIRGSLGQVTAIFICIGVFTGQLLGLPELLGKESTWPYLFGVIVVPAVVQLLSLPFLPDSPRYLLLEKHNEARAVKAFQTFLGKADVSQEVEEVLAESRVQRSIRLVSVLELLRAPYVRWQVVTVIVTMACYQLCGLNAIWFYTNSIFGKAGIPPAKIPYVTLSTGGIETLAAVFSGLVIEHLGRRPLLIGGFGLMGLFFGTLTITLTLQDHAPWVPYLSIVGILAIIASFCSGPGGIPFILTGEFFQQSQRPAAFIIAGTVNWLSNFAVGLLFPFIQKSLDTYCFLVFATICITGAIYLYFVLPETKNRTYAEISQAFSKRNKAYPPEEKIDSAVTDGKINGRP
# B2: Solute carrier family 2, facilitated glucose transporter member 9 (Homo sapiens), Q9NRM0-2 (parent)
# chain: MKLSKKDRGEDEESDSAKKKLDWSCSLLVASLAGAFGSSFLYGYNLSVVNAPTPYIKAFYNESWERRHGRPIDPDTLTLLWSVTVSIFAIGGLVGTLIVKMIGKVLGRKHTLLANNGFAISAALLMACSLQAGAFEMLIVGRFIMGIDGGVALSVLPMYLSEISPKEIRGSLGQVTAIFICIGVFTGQLLGLPELLGKESTWPYLFGVIVVPAVVQLLSLPFLPDSPRYLLLEKHNEARAVKAFQTFLGKADVSQEVEEVLAESRVQRSIRLVSVLELLRAPYVRWQVVTVIVTMACYQLCGLNAIWFYTNSIFGKAGIPPAKIPYVTLSTGGIETLAAVFSGLVIEHLGRRPLLIGGFGLMGLFFGTLTITLTLQDHAPWVPYLSIVGILAIIASFCSGPGGIPFILTGEFFQQSQRPAAFIIAGTVNWLSNFAVGLLFPFIQKSLDTYCFLVFATICITGAIYLYFVLPETKNRTYAEISQAFSKRNKAYPPEEKIDSAVTDGKINGRP
# Variants of: B1
# Settings: with itm2b_human ITM2B
row,effect of a mutation on the interaction,Variant
1,with no effect,N90Q

# Variants of: B2
# Settings: with itm2b_human ITM2B
row,effect of a mutation on the interaction,Variant
1,with no effect,N61Q

# Variants of: B2
# Settings: with itm2b_human ITM2B
# Remark: another data set of the same source
row,effect of a mutation on the interaction,Variant
1,disrupting interaction strength,N61Q
